Reference: patent US20240173407A1

Target: Bicistronic receptor WU76UB CD3E_CD3E_2B4_CD3Z_CD3G_CD3G_OX40
Experiment: cell-based or functional assay

Chain of Bicistronic receptor WU76UB CD3E_CD3E_2B4_CD3Z_CD3G_CD3G_OX40 (chain, as listed by the source limits assumed, form in doubt): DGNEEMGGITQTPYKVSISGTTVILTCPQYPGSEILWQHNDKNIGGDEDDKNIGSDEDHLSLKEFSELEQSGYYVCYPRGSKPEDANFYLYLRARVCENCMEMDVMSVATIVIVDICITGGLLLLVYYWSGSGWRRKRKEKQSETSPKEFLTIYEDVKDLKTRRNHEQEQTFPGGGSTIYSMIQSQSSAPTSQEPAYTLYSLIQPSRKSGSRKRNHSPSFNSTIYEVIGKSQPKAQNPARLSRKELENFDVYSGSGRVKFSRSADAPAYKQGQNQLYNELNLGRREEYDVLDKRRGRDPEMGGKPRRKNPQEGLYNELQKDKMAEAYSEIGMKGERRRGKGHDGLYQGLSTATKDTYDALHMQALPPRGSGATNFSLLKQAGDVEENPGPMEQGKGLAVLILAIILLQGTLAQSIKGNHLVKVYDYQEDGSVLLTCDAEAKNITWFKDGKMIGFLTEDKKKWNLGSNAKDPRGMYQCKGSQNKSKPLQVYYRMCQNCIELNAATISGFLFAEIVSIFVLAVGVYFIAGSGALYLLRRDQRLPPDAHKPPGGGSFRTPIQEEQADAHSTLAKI

Substance: Blinatumomab (bispecific antibody)
- fold change in p-S6 levels: 3 fold
